Results on 125 sequences are retold here after the supplement of paper PMC9112550, “Optimization of the antimicrobial peptide Bac7 by deep mutational scanning” (BMC Biology, 2022).

The data set has as its system Escherichia coli TOP10. In words: shrunken log2 fold change of peptide-encoding DNA abundance (4.5 h post-induction vs induction); higher = less antimicrobial activity (less host growth inhibition). Particulars: time post-induction: 4.5 h; library: site-saturation at positions 5, 18, 19, 20.
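Note: peptides expressed intracellularly from a pBAD plasmid library in pooled LB shake-flask culture, induced with 0.3% L-arabinose, DNA abundance read by NGS, three biological replicates, DESeq2 with apeglm shrinkage.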

On to RRIRIRPPRLPRPRPRPMAVPRP, for which the “shrunken log2 fold change” value is 0.142. With RRIRRRPPRLPRPRPRPGRLPRP, the “shrunken log2 fold change” value turned out to be 0.728.

Consider RRIRGRPPRLPRPRPRPDYAPRP, for which the “shrunken log2 fold change” value is -0.0775. For RRIRARPPRLPRPRPRPWSDPRP the value was 0.15.

RRIRMRPPRLPRPRPRPYLIPRP: the “shrunken log2 fold change” value is -0.463. For RRIRERPPRLPRPRPRPREHPRP the value was -0.0329; for RRIRVRPPRLPRPRPRPKSCPRP, -0.113; for RRIRARPPRLPRPRPRPPELPRP, 0.947. As for RRIRHRPPRLPRPRPRPSRAPRP, the “shrunken log2 fold change” value is 0.373.

As to RRIRKRPPRLPRPRPRPADVPRP, the “shrunken log2 fold change” value worked out at 0.127.

In the case of RRIRDRPPRLPRPRPRPNSQPRP, the “shrunken log2 fold change” value was -0.283.

Turning to RRIRVRPPRLPRPRPRPFKWPRP, the “shrunken log2 fold change” value worked out at 0.00238. For RRIRDRPPRLPRPRPRPFNCPRP the value was 0.0412; for RRIRMRPPRLPRPRPRPHTQPRP, 0.614. The value for RRIRWRPPRLPRPRPRPYGDPRP was -0.113; that for RRIRERPPRLPRPRPRPVEQPRP was -0.209. For RRIRCRPPRLPRPRPRPEADPRP the value was 0.819; for RRIRVRPPRLPRPRPRPNRIPRP, -0.0663. Consider RRIRYRPPRLPRPRPRPTDNPRP, for which the “shrunken log2 fold change” value was -1.05. The value for RRIRPRPPRLPRPRPRPDPIPRP was 0.0782; that for RRIRKRPPRLPRPRPRPGMNPRP was -0.0284. The value for RRIRARPPRLPRPRPRPFRVPRP was -0.19. For RRIRARPPRLPRPRPRPHVPPRP the value was -0.242; for RRIRWRPPRLPRPRPRPSDMPRP, -0.354. For the sequence RRIRARPPRLPRPRPRPPIGPRP, the “shrunken log2 fold change” value was 0.287. For RRIRLRPPRLPRPRPRPNNEPRP the value was -0.276; for RRIRPRPPRLPRPRPRPAQWPRP, 0.384; for RRIRYRPPRLPRPRPRPREEPRP, 0.0202. Turning to RRIRRRPPRLPRPRPRPIQCPRP, the “shrunken log2 fold change” value is 0.00305. For RRIRGRPPRLPRPRPRPRNCPRP the value was 0.0949; for RRIRIRPPRLPRPRPRPFTSPRP, -0.475. The value for RRIRYRPPRLPRPRPRPEDLPRP was -0.00674; that for RRIRYRPPRLPRPRPRPCRQPRP was -0.442; that for RRIRTRPPRLPRPRPRPKNAPRP was 0.0264. For RRIRTRPPRLPRPRPRPSSWPRP the value was 0.131; for RRIRFRPPRLPRPRPRPQAMPRP, 0.0123; for RRIRTRPPRLPRPRPRPHNNPRP, -0.894. For RRIRWRPPRLPRPRPRPWHLPRP, the “shrunken log2 fold change” value is -0.00636. For RRIRNRPPRLPRPRPRPHKGPRP the value was -0.014; for RRIRYRPPRLPRPRPRPHEHPRP, -0.0681; for RRIRLRPPRLPRPRPRPNNQPRP, -0.287. For RRIRGRPPRLPRPRPRPYHEPRP the value was 0.182; for RRIRWRPPRLPRPRPRPDVPPRP, -0.177; for RRIRYRPPRLPRPRPRPSWHPRP, -1.12.

RRIRVRPPRLPRPRPRPCHLPRP: the “shrunken log2 fold change” value was -0.00192. The value for RRIRPRPPRLPRPRPRPAYMPRP was -0.231; that for RRIRIRPPRLPRPRPRPFVHPRP was -0.498; that for RRIRQRPPRLPRPRPRPAYGPRP was -0.341. The value for RRIRNRPPRLPRPRPRPNATPRP was -0.185; that for RRIRDRPPRLPRPRPRPVEVPRP was 0.43. The value for RRIRGRPPRLPRPRPRPPCYPRP was 0.265; that for RRIRFRPPRLPRPRPRPEKEPRP was -0.0104; that for RRIRCRPPRLPRPRPRPVCCPRP was 0.0914.

On to RRIRGRPPRLPRPRPRPTRSPRP, for which the “shrunken log2 fold change” value is 1.18. The value for RRIRRRPPRLPRPRPRPFFCPRP was 0.167.

As to RRIRNRPPRLPRPRPRPTIFPRP, the “shrunken log2 fold change” value was -0.248.

Regarding RRIRRRPPRLPRPRPRPSEQPRP, the “shrunken log2 fold change” value worked out at 0.262. For RRIRQRPPRLPRPRPRPQAMPRP the value was 0.015; for RRIRDRPPRLPRPRPRPNDEPRP, 0.418. For RRIRIRPPRLPRPRPRPLDTPRP the value was -0.142. Turning to RRIRVRPPRLPRPRPRPDEPPRP, the “shrunken log2 fold change” value was determined as 0.225.

As for RRIRQRPPRLPRPRPRPGCMPRP, the “shrunken log2 fold change” value was found to be 0.175. For RRIRVRPPRLPRPRPRPTDCPRP, the “shrunken log2 fold change” value was -0.184. For RRIRKRPPRLPRPRPRPDRIPRP the value was -0.00844; for RRIRRRPPRLPRPRPRPCGSPRP, 0.0143; for RRIRRRPPRLPRPRPRPLSDPRP, 0.144.

In the case of RRIRPRPPRLPRPRPRPSSWPRP, the “shrunken log2 fold change” value worked out at 0.104. The value for RRIRFRPPRLPRPRPRPSMRPRP was 0.377; that for RRIRWRPPRLPRPRPRPRMVPRP was 0.155; that for RRIRERPPRLPRPRPRPQKSPRP was -0.202.

With RRIRYRPPRLPRPRPRPHCYPRP, the “shrunken log2 fold change” value is -0.426.

For RRIRLRPPRLPRPRPRPFPQPRP, the “shrunken log2 fold change” value is -0.0558. For RRIRNRPPRLPRPRPRPMVMPRP the value was -0.383.

As for RRIRERPPRLPRPRPRPVVEPRP, the “shrunken log2 fold change” value is 0.118. The value for RRIRKRPPRLPRPRPRPASVPRP was 0.291; that for RRIRGRPPRLPRPRPRPAQVPRP was 0.274; that for RRIRHRPPRLPRPRPRPHSWPRP was -0.0723. The value for RRIRHRPPRLPRPRPRPCLQPRP was -0.148; that for RRIRNRPPRLPRPRPRPFWWPRP was -0.0225. The value for RRIRIRPPRLPRPRPRPTDCPRP was -0.196. In the case of RRIRVRPPRLPRPRPRPDFPPRP, the “shrunken log2 fold change” value stood at 0.0164. For RRIRMRPPRLPRPRPRPALHPRP the value was 0.791. For RRIRTRPPRLPRPRPRPWPRPRP the value was 0.116; for RRIRHRPPRLPRPRPRPNSKPRP, -0.737. Turning to RRIRFRPPRLPRPRPRPDAVPRP, the “shrunken log2 fold change” value was -0.0144. For RRIRARPPRLPRPRPRPGTEPRP the value was 0.376; for RRIRWRPPRLPRPRPRPGCLPRP, 0.792. For RRIRTRPPRLPRPRPRPLFAPRP the value was 0.228; for RRIRRRPPRLPRPRPRPCQVPRP, 0.0476; for RRIRWRPPRLPRPRPRPQPQPRP, 0.417. The value for RRIRNRPPRLPRPRPRPDFQPRP was -0.156; that for RRIRKRPPRLPRPRPRPTSSPRP was 0.0586.

For RRIRPRPPRLPRPRPRPEVVPRP, the “shrunken log2 fold change” value is 0.0581. The value for RRIRMRPPRLPRPRPRPSHPPRP was -0.0222; that for RRIRGRPPRLPRPRPRPRRRPRP was 1.02. The value for RRIRWRPPRLPRPRPRPQHHPRP was -0.475; that for RRIRTRPPRLPRPRPRPCRMPRP was -0.261. For RRIRARPPRLPRPRPRPYCRPRP the value was -0.885. RRIRWRPPRLPRPRPRPHHKPRP: the “shrunken log2 fold change” value was -0.23.

As for RRIRYRPPRLPRPRPRPYINPRP, the “shrunken log2 fold change” value was -1.69.

As for RRIRGRPPRLPRPRPRPCSCPRP, the “shrunken log2 fold change” value turned out to be 0.105.

With RRIRHRPPRLPRPRPRPYSAPRP, the “shrunken log2 fold change” value is 0.0254. Consider RRIRIRPPRLPRPRPRPRNDPRP, for which the “shrunken log2 fold change” value was -0.543. The value for RRIRHRPPRLPRPRPRPLGFPRP was 0.114; that for RRIRNRPPRLPRPRPRPSMFPRP was -0.458. For RRIRNRPPRLPRPRPRPHYVPRP the value was -0.121. As for RRIRRRPPRLPRPRPRPQLWPRP, the “shrunken log2 fold change” value was 0.146. For RRIRMRPPRLPRPRPRPEDYPRP the value was 1.06; for RRIRYRPPRLPRPRPRPTIDPRP, -0.271; for RRIRHRPPRLPRPRPRPSRWPRP, 0.102. RRIRMRPPRLPRPRPRPHKCPRP: the “shrunken log2 fold change” value worked out at 0.0429.

For RRIRERPPRLPRPRPRPMTNPRP, the “shrunken log2 fold change” value was -0.112. For the sequence RRIRPRPPRLPRPRPRPQLHPRP, the “shrunken log2 fold change” value was -0.0604.

As for RRIRERPPRLPRPRPRPDMAPRP, the “shrunken log2 fold change” value is -0.00146. The value for RRIRPRPPRLPRPRPRPSDFPRP was -0.42; that for RRIRKRPPRLPRPRPRPCLAPRP was 0.433. The value for RRIRLRPPRLPRPRPRPMTAPRP was 0.0114; that for RRIRYRPPRLPRPRPRPQRYPRP was -0.771; that for RRIRKRPPRLPRPRPRPYSPPRP was -0.23.

RRIRTRPPRLPRPRPRPAYNPRP: the “shrunken log2 fold change” value is -0.355. The value for RRIRSRPPRLPRPRPRPHGWPRP was -0.107.

RRIRCRPPRLPRPRPRPFPRPRP: the “shrunken log2 fold change” value is 0.134.

Turning to RRIRFRPPRLPRPRPRPRPVPRP, the “shrunken log2 fold change” value was 0.633. Consider RRIRSRPPRLPRPRPRPIPVPRP, for which the “shrunken log2 fold change” value was -0.208.

For the sequence RRIRERPPRLPRPRPRPFYAPRP, the “shrunken log2 fold change” value is -0.526.
